Literature values in patent publication US20220280635A1, “PARTICLES FOR STIMULATING AN IMMUNE RESPONSE AGAINST VIRAL INFECTIONS” (FINNCURE OY, priority 2020, published 2022).

Biological target: ACE2 (Homo sapiens, UniProt Q9BYF1)
Conditions: simulation, ref [8]

Sequence of ACE2 (Q9BYF1 18-805): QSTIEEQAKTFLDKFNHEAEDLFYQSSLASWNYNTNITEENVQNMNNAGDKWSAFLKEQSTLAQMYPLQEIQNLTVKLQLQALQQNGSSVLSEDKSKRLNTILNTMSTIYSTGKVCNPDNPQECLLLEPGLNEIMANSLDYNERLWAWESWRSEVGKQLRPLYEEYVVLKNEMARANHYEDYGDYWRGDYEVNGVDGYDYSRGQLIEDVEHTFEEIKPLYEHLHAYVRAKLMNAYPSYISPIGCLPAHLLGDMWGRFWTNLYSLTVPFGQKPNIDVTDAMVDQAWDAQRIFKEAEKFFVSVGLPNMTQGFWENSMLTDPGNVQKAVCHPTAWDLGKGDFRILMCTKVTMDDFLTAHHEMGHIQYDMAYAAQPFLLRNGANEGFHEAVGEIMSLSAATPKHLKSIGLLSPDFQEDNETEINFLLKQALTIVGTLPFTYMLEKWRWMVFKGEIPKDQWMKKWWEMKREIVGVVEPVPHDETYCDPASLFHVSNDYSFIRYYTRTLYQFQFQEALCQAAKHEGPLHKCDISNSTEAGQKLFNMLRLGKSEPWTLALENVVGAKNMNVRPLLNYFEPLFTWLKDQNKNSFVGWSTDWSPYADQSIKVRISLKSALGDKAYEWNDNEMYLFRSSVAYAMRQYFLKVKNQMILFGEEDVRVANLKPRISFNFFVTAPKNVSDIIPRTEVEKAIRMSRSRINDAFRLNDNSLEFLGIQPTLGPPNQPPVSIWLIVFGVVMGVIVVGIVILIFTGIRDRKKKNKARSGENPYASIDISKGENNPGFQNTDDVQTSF

Row | Substance | binding affinity towards the ACE2 receptor compared with YKYRYL
1 | YKYNYI: alternative synthetic hexapeptide variant (Potential alternative synthetic hexapeptide variant) | even stronger binding affinity
2 | YKYNYL: alternative synthetic hexapeptide variant (Potential alternative synthetic hexapeptide variant) | even stronger binding affinity
